T1: Human ST2 (human, UniProt Q01638 19-328, limits assumed)
T1 construct: also called human ST2 protein; Interleukin 1 receptor-like 1
T1 sequence (looked up): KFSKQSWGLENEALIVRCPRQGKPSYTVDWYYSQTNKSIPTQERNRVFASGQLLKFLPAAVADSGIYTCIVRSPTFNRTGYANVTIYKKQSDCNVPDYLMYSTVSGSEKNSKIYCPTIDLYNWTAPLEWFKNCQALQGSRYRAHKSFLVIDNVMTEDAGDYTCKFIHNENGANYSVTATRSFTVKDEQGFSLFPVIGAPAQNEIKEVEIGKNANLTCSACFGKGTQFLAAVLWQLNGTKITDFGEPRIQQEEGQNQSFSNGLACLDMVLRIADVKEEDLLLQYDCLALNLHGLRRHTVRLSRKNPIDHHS


Each binder was assayed against T1, Human ST2 (assay: SPR (Carterra), antibody immobilized, ST2 analyte).
Method: Binding of the reformatted human ST2 antibodies to the human and mouse ST2 proteins was evaluated by surface plasmon resonance (SPR), using a high throughput antibody screening and characterization platform from Carterra (Salt Lake City, Utah).

| Binder | Kd [µM] | koff [s⁻¹] | kon [M⁻¹ s⁻¹] |
| --- | --- | --- | --- |
| Human ST2 IgG1 Antibody 49 (antibody, V domains shown, IgG1; also called ST2 Antibody 49) VH: QVQLVQSGAEVKKPGASVKVSCKASGGTLSSYAISWVRQAPGQGLEWMGGISPYNGKANYAEKLQGRVTMTRDTSTSTVYMELSSLRSEDTAVYYCAIRSIAAREGVYYYYMDVWGKGTTVTVSS VL: not shown | 0.269 | 0.085 | 320000 |
| Human ST2 IgG1 Antibody 41 (antibody, V domains shown, IgG1; also called ST2 Antibody 41) VH: QVQLVQSGAEVKKPGSSVKVSCKASGYTFTDYQMHWVRQAPGQGLEWVGVINPGGGSTTYAQTFQGRVTITADESTSTAYMELSSLRSEDTAVYYCARGGVEYSSSWDYYYYYGMDVWGQGTTVTVSS VL: not shown | 0.099 | 0.0024 | 24000 |
| Human ST2 IgG1 Antibody 42 (antibody, V domains shown, IgG1; also called ST2 Antibody 42) VH: QVQLVQSGAEVKKPGASVKVSCKASGYTFNSHWVHWVRQAPGQGLEWMGWISAYNGNTNYAQKLQGRVTMTRDTSTSTVYMELSSLRSEDTAVYYCASGDYPYYYYGMDVWGQGTTVTVSS VL: DIQMTQSPSSLSASVGDRVTITCRASQGVANWLAWYQQKPGKAPKLLIYSASNLQSGVPSRFSGSGSGTDFTLTISSLQPEDFATYYCQQSSSFPLTFGQSTRLEIKR | 0.278 | 0.088 | 320000 |
| Human ST2 IgG1 Antibody 51 (antibody, V domains shown, IgG1; also called ST2 Antibody 51) VH: QVQLVQSGAEVKKPGSSVKVSCKASGGSFSRSSISWVRQAPGQGLEWMGGIIPIFGAPVYAQDLQGRVTITADESTSTAYMELSSLRSEDTAVYYCARDHPHCSSTSCYYGMDVWGQGTTVTVSS VL: EIVMTQSPATLSVSPGERATLSCRASQTISSSYLAWYQQKPGQAPRLLIYGASTRATGIPARFSGSGSGTEFTLTISSLQSEDFAVYYCQQYGSSPLTFGGGTKVEIKR | 0.154 | 0.043 | 280000 |
| Human ST2 IgG1 Antibody 45 (antibody, V domains shown, IgG1; also called ST2 Antibody 45) VH: QVQLVQSGAEVKKPGSSVKVSCKASGGTFSSYAISWVRQAPGQGLEWMGGIVPIFETANYAQKFQGRVTITADESTSTAYMELSSLRSEDTAVYYCARDTPNFDYWGQGTLVTVSS VL: not shown | 0.022 | 0.02 | 920000 |
| Human ST2 IgG1 Antibody 54 (antibody, V domains shown, IgG1; also called ST2 Antibody 54) VH: EVQLLESGGGLVQPGGSLRLSCAASGFTVSSNYMSWVRQAPGKGLEWVSAISGSGGSTYYADSVKGRFTISRDNSKNTLYLQMNSLRAEDTAVYYCARGRFGSRDVWGKGTTVTVSS VL: not shown | 0.081 | 0.029 | 360000 |
| Human ST2 IgG1 Antibody 53 (antibody, V domains shown, IgG1; also called ST2 Antibody 53) VH: QVQLVQSGAEVKKPGSSVKVSCKASGGTFSSYAISWVRQAPGQGLEWMGGIIPIFGTANYAQKFQGRVTITADESTSTAYMELSSLRSEDTAVYYCARVPADYYYYYYGMDVWGQGTTVTVSS VL: not shown | 0.74 | 0.12 | 160000 |
| Human ST2 IgG1 Antibody 47 (antibody, V domains shown, IgG1; also called ST2 Antibody 47) VH: QVQLVQSGAEVKKPGSSVKVSCKASGYTFTNYYMHWVRQAPGQGLEWMGGIIPIFGTANYAQKFQGRVTITADESTSTAYMELSSLRSEDTAVYYCARGGYYDSSQFDIWGQGTMVTVSS VL: not shown | 0.413 | 0.12 | 300000 |
| Human ST2 IgG1 Antibody 50 (antibody, V domains shown, IgG1; also called ST2 Antibody 50) VH: QVQLVQSGAEVKKPGASVKVSCKASGAAFNTVAISWVRQAPGQGLEWMGWMNPNSGNTGYAQKFQGRVTMTRDTSTSTVYMELSSLRSEDTAVYYCARTPAAAGTVYFDYWGQGTLVTVSS VL: not shown | 0.213 | 0.075 | 350000 |
| Human ST2 IgG1 Antibody 52 (antibody, V domains shown, IgG1; also called ST2 Antibody 52) VH: QVQLVQSGAEVKKPGSSVKVSCKASGGTFSNYAISWVRQAPGQGLEWMGWISAYNGNTNYAQKFQGRVTITADESTSTAYMELSSLRSEDTAVYYCARLSTVTTRPYYYYGMDVWGQGTTVTVSS VL: DIVMTQSPLSLPVTPGEPASISCRSSQSLLHSNGYNYLDWYLQKPGQSPQLLIYAASSLQGGVPDRFSGSGSGTDFTLKISRVEAEDVGVYYCMQGTHWPTFGQGTKVEIKR | 0.932 | 0.15 | 160000 |
| Human ST2 IgG1 Antibody 44 (antibody, V domains shown, IgG1; also called ST2 Antibody 44) VH: EVQLLESGGGLVKPGGSLRLSCAASGFTFSSYWMSWVRQAPGKGLEWVSAISGTAINTYYADSVKGRFTISRDDSKNTLYLQMNSLKTEDTAVYYCARVRRDSSGGGAFDIWGQGTMVTVSS VL: DIQMTQSPSSLSASVGDRVTITCRASQGISNNLNWYQQKPGKAPKLLIYAASSLQTGVPSRFSGSGSGTDFTLTISSLQPEDFATYYCQQSYSTPPTFGQGTKVEIKR | 0.1 | 0.024 | 240000 |
| Human ST2 IgG1 Antibody 46 (antibody, V domains shown, IgG1; also called ST2 Antibody 46) VH: EVQLLESGGGLVKPGGSLRLSCAASGFTFSSYWMSWVRQAPGKGLEWVSSISGTSNYMYYADSVKGRFTISRDDSKNTLYLQMNSLKTEDTAVYYCARDRGFLGYFDYWGQGTLVTVSS VL: DIQMTQSPSSLSASVGDRVTITCQASQYISNYLNWYQQKPGKAPKLLIYGASTLQSGVPSRFSGSGSGTDFTLTISSLQPEDFATYYCQQSQSTPLTFGPGTKVDIKR | 0.339 | 0.042 | 120000 |
| Human ST2 IgG1 Antibody 43 (antibody, V domains shown, IgG1; also called ST2 Antibody 43) VH: QVQLVQSGAQVKKPGASVKVSCKASGYTFSSYYIHWVRQAPGQGLEWMGWINPHSGGTNYGQEFQGRVTMTRDTSTSTVYMELSSLRSEDTAVYYCARDSSGMGATIGYWGQGTLVTVSS VL: DIQMTQSPSSLSASVGDRVTITCRASQSVNRRLAWYQQKPGKAPKLLIYAASTLQSGVPSRFSGSGSGTDFTLTISSLQPEDFATYYCQQGNSFPITFGQGTKVEIKR | 0.146 | 0.0074 | 51000 |
| Human ST2 IgG1 Antibody 48 (antibody, V domains shown, IgG1; also called ST2 Antibody 48) VH: EVQLLQSGGGLVQPGGSLRLSCAASEFTFSNAWMSWVRQAPGKGLEWVSTISGTSRYTYYADSVKGRFTISRDNSKNSLYLQMNSLRAEDTAVYYCARDQDGRLDYWGQGTLVTVSS VL: DIQMTQSPSSLSASVGDRVTITCRASQNIGSWLAWYQQKPGKAPKLLIYRASTLQSGVPSRFSGSGSGTDFTLTISSLQPEDFATYYCQQSYSTPYTFGQGTKVEIKR | 0.146 | 0.024 | 170000 |

The next lines start with the values.

| Kd [µM] | koff [s⁻¹] | kon [M⁻¹ s⁻¹] | Binder |
| --- | --- | --- | --- |
| 0.14 | 0.072 | 510000 | Human ST2 IgG1 Antibody 57 (antibody, V domains shown, IgG1; also called ST2 Antibody 57) VH: QVQLVQSGAEVKKPGASVKVSCKASGYTFTGYYMHWVRQAPGQGLEWMGVINPSGGSTSYAQKFQGRVTMTRDTSTSTVYMELSSLRSEDTAVYYCARGDYYYGSGSDYYYYYGMDVWGQGTLVTVSS VL: DIQMTQSPSSLSASVGDRVTITCRASQGVTSWLAWYQQKPGKAPKLLIYAASTLQSGVPSRFSGSGSGTDFTLTISSLQPEDFATYYCQQANSFPLTFGGGTKVEIKR |
| 0.349 | 0.1 | 300000 | Human ST2 IgG1 Antibody 55 (antibody, V domains shown, IgG1; also called ST2 Antibody 55) VH: QVQLVQSGAEVKKPGSSVKVSCKASGGTFSSYAISWVRQAPGQGLEWMGDIIPVIDTTNYAQKFQGRVTITADESTSTAYMELSSLRSEDTAVYYCARASGYPFGRWFDPWGQGTLVTVSS VL: not shown |
| 0.076 | 0.055 | 730000 | Human ST2 IgG1 Antibody 65 (antibody, V domains shown, IgG1; also called ST2 Antibody 65) VH: QVQLVQSGAEVKKPGSSVKVSCKASGGTFSSYAISWVRQAPGQGLEWMGGIIPIFGTANYAQKFQGRVTITADESTSTAYMELSSLRSEDTAVYYCARDNPDFDYWGQGTLVTVSS VL: DIQMTQSPSSLSASVGDRVTITCRASQGISNYLNWYQQKPGKAPKLLIYAASSLQSGVPSRFSGSGSGTDFTLTISSLQPEDFATYYCQQSYRTPITFGQGTRLEIKR |
| 0.97 | 0.14 | 150000 | Human ST2 IgG1 Antibody 56 (antibody, V domains shown, IgG1; also called ST2 Antibody 56) VH: EVQLLESGGGLVKPGGSLRLSCAASGFTFSSYAMSWVRQAPGKGLEWVSSISSDSYYKYHADSVKGRFTISRDDSKNTLYLQMNSLKTEDTAVYYCAKGADYDFWSGYLDYWGQGTLVTVSS VL: DIQMTQSPSSLSASVGDRVTITCRASQGISSYLAWYQQKPGKAPKLLIYRASTLQSGVPSRFSGSGSGTDFTLTISSLQPEDFATYYCQQSYNTPWTFGQSTKVEIKR |
| 0.628 | 0.14 | 220000 | Human ST2 IgG1 Antibody 58 (antibody, V domains shown, IgG1; also called ST2 Antibody 58) VH: EVQLLESGAEVKKPGSSVKVSCKASGGTFSSYAISWVRQAPGQGLEWMGGIIPIFGTANYAQKFQGRVTITADKSTSTAYMELSSLRSEDTAVYYCARPRLAVAGGWYFDLWGRGTLVTVSS VL: DIQMTQSPSSLSASVGDRVTITCQASQDISNYLNWYQQKPGKAPKLLIYAASSLQSGVPSRFSGSGSGTDFTLTISSLQPEDFATYYCQQSFSSTPTFGQGTKLEIKR |
| 1 | 0.19 | 190000 | Human ST2 IgG1 Antibody 59 (antibody, V domains shown, IgG1; also called ST2 Antibody 59) VH: EVQLLESGGGVVQPGRSLRLSCAASGFTFSSYWMSWVRQAPGKGLEWVSSISSDSSYKYYADSVKGRFTISRDNSKNTLYLQMNSLRAEDTAVYYCARDGLRWDAFDIWGQGTMVTVSS VL: not shown |
| 1.1 | 0.12 | 110000 | Human ST2 IgG1 Antibody 60 (antibody, V domains shown, IgG1; also called ST2 Antibody 60) VH: QVQLVQSGAEVKKPGASVKVSCKASGYTFTDHYLHWVRQAPGQGLEWMGIINPSGGYTSHAQKFQGRVTMTRDTSTSTVYMELSSLRSEDTAVYYCARDRFRELLGSRYYGMDVWGQGTTVTVSS VL: DIQMTQSPSSLSASVGDRVTITCRASQDLSNHLAWYQQKPGKAPKLLIYAASTLQSGVPSRFSGSGSGTDFTLTISSLQPEDFATYYCQQYHDWPLTFGQGTKVEIKR |
